pKd: −log10 of the molar value.
Assays:
[1] = target: NEDD8-Fluor568CRL2FEM1C (human) (UniProt Q15843)
[2] = target: neddylated Fluor568CRL2VHL (human) (UniProt Q15843)
[3] = target: neddylated ^Fluor568CRL2^FEM1C (human) (UniProt Q13617); experiment: other fluorescence titration; environmental perturbation of Alexa Fluor 568 on neddylated ^Fluor568CRL2^FEM1C (25 or 50 nM); unlabeled UBE2R2 titrated; reaction buffer at ionic strength of 50 mM; one-site model
[4] = target: NEDD8-Fluor568CRL2FEM1C (human) (UniProt Q15843); experiment: other fluorescence titration
FEM1C (human) = target: T1, FEM1C (human) (UniProt Q96JP0)
T1 sequence: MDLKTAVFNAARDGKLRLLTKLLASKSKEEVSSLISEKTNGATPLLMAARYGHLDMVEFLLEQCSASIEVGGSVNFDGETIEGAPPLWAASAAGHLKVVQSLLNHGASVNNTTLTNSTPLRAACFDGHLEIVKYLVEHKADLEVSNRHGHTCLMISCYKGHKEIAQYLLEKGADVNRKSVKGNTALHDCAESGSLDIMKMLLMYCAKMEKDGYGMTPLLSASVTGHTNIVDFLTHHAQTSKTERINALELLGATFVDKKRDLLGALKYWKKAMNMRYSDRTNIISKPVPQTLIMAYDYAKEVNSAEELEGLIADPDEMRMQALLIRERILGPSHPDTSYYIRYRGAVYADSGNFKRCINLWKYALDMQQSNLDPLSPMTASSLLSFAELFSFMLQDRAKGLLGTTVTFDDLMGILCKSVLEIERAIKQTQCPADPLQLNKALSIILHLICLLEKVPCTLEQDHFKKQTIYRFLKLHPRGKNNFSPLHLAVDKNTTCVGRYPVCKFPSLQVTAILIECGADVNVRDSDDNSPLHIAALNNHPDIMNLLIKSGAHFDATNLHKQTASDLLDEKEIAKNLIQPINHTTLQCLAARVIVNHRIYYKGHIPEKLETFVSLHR

[5] = target: NEDD8-Fluor568CUL2-RBX1 (human) (UniProt Q15843); experiment: FRET or BRET; Fluor647UBE2R2C93K titrated into 25 or 50 nM NEDD8-Fluor568CUL2-RBX1 in solution; 30 mM Tris pH 7.5, 100 mM NaCl, BSA; excitation 575 nm; one-site binding fit
[6] = target: NEDD8-Fluor568CUL2-RBX1 (human) (UniProt Q15843); experiment: FRET or BRET; Fluor647UBE2R2C93K titrated into 25 or 50 nM NEDD8-Fluor568CUL2-RBX1 in solution; 30 mM Tris pH 7.5, final 50 mM NaCl, BSA; excitation 575 nm; one-site binding fit
[7] = target: NEDD8-Fluor568CRL2FEM1C (human) (UniProt Q15843); experiment: other fluorescence titration; environmental perturbation of the Fluor568 dye: unlabelled UBE2R2 titrated into 25 or 50 nM NEDD8-Fluor568CRL2FEM1C; 30 mM Tris pH 7.5, 100 mM NaCl, BSA; one-site binding fit
[8] = target: NEDD8-Fluor568CRL2FEM1C (human) (UniProt Q15843); experiment: other fluorescence titration; environmental perturbation of the Fluor568 dye: unlabelled UBE2R2 or UBE2R2C93K-ubiquitin titrated into 25 or 50 nM NEDD8-Fluor568CRL2FEM1C; 30 mM Tris pH 7.5, final 50 mM NaCl, BSA; one-site binding fit

Sequence of UBE2D3 (P61077 whole entry): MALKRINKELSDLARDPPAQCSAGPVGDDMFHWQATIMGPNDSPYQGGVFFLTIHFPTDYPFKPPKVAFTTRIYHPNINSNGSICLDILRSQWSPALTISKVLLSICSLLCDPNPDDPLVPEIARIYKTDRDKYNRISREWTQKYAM
Sequence of ARIH1 (Q9Y4X5 whole entry): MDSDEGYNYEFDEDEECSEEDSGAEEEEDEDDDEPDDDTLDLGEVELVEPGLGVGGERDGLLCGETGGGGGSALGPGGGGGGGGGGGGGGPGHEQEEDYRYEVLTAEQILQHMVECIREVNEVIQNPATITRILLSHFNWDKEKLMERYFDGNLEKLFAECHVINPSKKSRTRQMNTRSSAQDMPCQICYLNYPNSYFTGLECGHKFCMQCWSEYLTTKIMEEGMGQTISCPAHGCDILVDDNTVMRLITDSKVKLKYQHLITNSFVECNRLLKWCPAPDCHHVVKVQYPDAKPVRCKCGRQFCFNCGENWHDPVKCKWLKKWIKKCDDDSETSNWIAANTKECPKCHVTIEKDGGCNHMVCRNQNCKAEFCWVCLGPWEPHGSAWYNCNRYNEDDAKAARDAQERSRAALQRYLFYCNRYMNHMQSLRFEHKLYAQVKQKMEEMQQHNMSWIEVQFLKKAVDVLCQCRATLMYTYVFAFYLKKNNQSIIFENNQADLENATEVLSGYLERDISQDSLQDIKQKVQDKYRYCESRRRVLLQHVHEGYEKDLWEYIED
Sequence of UBE2G1 (P62253 whole entry): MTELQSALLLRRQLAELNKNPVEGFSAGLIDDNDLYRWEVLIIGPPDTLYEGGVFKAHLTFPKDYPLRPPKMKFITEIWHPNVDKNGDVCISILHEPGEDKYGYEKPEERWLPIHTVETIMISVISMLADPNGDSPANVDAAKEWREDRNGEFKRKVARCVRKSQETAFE

## ARIH1 (from UniProt Q9Y4X5 1-557) (enzyme)
[1]
  Table S1: Km of the UCE for the CRL complex; ubiquitin priming of Sil1 peptide, ARIH1 (with UBE2L3, K0 ubiquitin) with unlabelled neddylated CRL2FEM1C, Michaelis-Menten fit: 0.143 µM
[2]
  Table S1: Km of the UCE for the CRL complex; ubiquitin priming of Hif1α peptide, ARIH1 (with UBE2L3, K0 ubiquitin) with unlabelled neddylated CRL2VHL, Michaelis-Menten fit: 0.151 µM

## UBE2R2 (wild type, unlabeled) (from UniProt Q712K3 1-238) (enzyme)
[3]
  fold decrease of Kd against neddylated CUL2-RBX1 alone: 7 fold

## UBE2D3 (from UniProt P61077 1-147) (enzyme)
[1]
  Table S1: Km of the UCE for the CRL complex; ubiquitin priming of Sil1 peptide, UBE2D3 (K0 ubiquitin) with unlabelled neddylated CRL2FEM1C, Michaelis-Menten fit: 0.916 µM
[2]
  Table S1: Km of the UCE for the CRL complex; ubiquitin priming of Hif1α peptide, UBE2D3 (K0 ubiquitin) with unlabelled neddylated CRL2VHL, Michaelis-Menten fit: 6.24 µM

## UBE2G1 (from UniProt P62253 1-170) (enzyme)
[1]
  Table S1: Km of the UCE for the CRL complex; ubiquitin priming of Sil1 peptide, UBE2G1 (K0 ubiquitin) with unlabelled neddylated CRL2FEM1C, Michaelis-Menten fit: 1.14 µM

## UBE2R2C93K-ubiquitin (from UniProt Q712K3 1-238; P0CG48 1-76) (complex)
[4]
  pKd: 7.30

## E88R UBE2R2 (from UniProt Q712K3 1-238) (enzyme)
FEM1C (human)
  catalytic efficiency of Sil1 peptide priming with neddylated CRL2^FEM1C, against wild type: 300 fold

## Fluor647UBE2R2C93K (from UniProt Q712K3 1-238) (enzyme)
[5]
  pKd: 5.94
[6]
  pKd: 6.56

## UBE2R2 (wild-type, unlabeled) (from UniProt Q712K3 1-238) (enzyme)
[7]
  pKd: 6.81
[8]
  pKd: 7.36

From publication PMC10997478
